Source: patent US20250304707A1

T1: human APRIL/TNFSF13 (human), O75888
T1 chain: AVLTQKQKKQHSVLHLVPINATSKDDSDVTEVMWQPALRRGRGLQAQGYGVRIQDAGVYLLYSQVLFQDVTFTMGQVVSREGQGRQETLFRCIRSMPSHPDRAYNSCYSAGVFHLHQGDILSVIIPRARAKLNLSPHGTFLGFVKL

B1: 01-024 (scFv) (scFv, part only; not given: linker, domain order, Myc-His tags, V domains shown, not shown: another chain or arm of the molecule; small tags and cut ends)
VH: EVQLVQSGGGLVQSGGSLRVSCAASGFTFSSGLMSWVRQAPGKGFEWVSCYNGGSDRAGYTDSVKGRFTISRDNAKNTLYLQMNSLKPEDTAVYYCARYIANSGTYYWDYWGQGTTVTVSS
VL: QAVLTQPPSASGTPGQRVSISCSGGISNIGSNIVNWYQHLPGTAPKLLIYSGNQRPSGVPDRFSGSKSGTSASLAISGLQSEDEADYYCSSWDSDLRNWVFGGGTKLTVL
B2: 01-027 (scFv) (scFv, part only; not given: linker, domain order, Myc-His tags, V domains shown, not shown: another chain or arm of the molecule; small tags and cut ends)
VH: EVQLVQSGGGLVQSGGSLRVSCAASGFTFSSGLMSWVRQAPGKGFEWVSGYNGGSDRAGYTDSVKGRFTISRDNAKNTLYLQMNSLKPEDTAVYYCARYIANSGTYYWDYWGQGTTVTVSS
VL: QAVLTQPPSASGTPGQRVSISCSGGISNIGSNIVNWYQHLPGTAPKLLIYSGNQRPSGVPDRFSGSKSGTSASLAISGLQSEDEADYYCSSWDSDLRNWVFGGGTKLTVL
B3: 01-025 (scFv) (scFv, part only; not given: linker, domain order, Myc-His tags, V domains shown, not shown: another chain or arm of the molecule; small tags and cut ends)
VH: EVQLVQSGGGLVQSGGSLRVSCAASGFTFSSGLMSWVRQAPGKGFEWVSGYNGGSDRAGYTDSVKGRFTISRDNAKNTLYLQMNSLKPEDTAVYYCARYIANSGTYYWDYWGQGTTVTVSS
VL: QPVLTQPPSVSEAPRQRVTISCSGSSSNIGNNAVNWYQQLPGKAPKLLIYSTNQRPSGVPDRFSGSKSGTSASLAISGLQSEDEADYYCAAWDDRVSAWLFGGGTKLTVL
B4: 01-026 (scFv) (scFv, part only; not given: linker, domain order, Myc-His tags, V domains shown, not shown: another chain or arm of the molecule; small tags and cut ends)
VH: EVQLVQSGGGLVQSGGSLRVSCAASGFTFSSGLMSWVRQAPGKGFEWVSGYNGGSDRAGYTDSVKGRFTISRDNAKNTLYLQMNSLKPEDTAVYYCARYIANSGTYYWDYWGQGTTVTVSS
VL: QSVLTQPPSVSGAPGQRVTISCTGSSSNIGAGYDVHWYQQLPGTAPKLVIYGNTNRPSGVPDRFSGSKSGTSASLAISGLQSEDEADYYCAAWDDSLNGWVFGGGTKLTVL
B5: 01-030 (scFv) (scFv, part only; not given: linker, domain order, Myc-His tags, V domains shown, not shown: another chain or arm of the molecule; small tags and cut ends)
VH: EVQLVQSGGGLVQPGGSLRVSCAASGFSFSSGLMSWVRQAPGKGFEWVSGYNGGSDRAGFADSVEGRFTISRDNAKNTLYLQMNSLKPEDTAVYYCARYIANSGTYYWDYWGQGTLVTVSS
VL: QSALTQPPSASGTPGQRVTISCSGSISNIGSNTVNWYQHLPGTAPKLLIYNHNQRPSGVPDRFSGSTSGTSASLAISGLQSEDEADYFCATWDDSLSAWLFGGGTKLTVL
B6: human BCMA (soluble analyte of Examples 8 and 14), Q02223 1-54 (receptor, UniProt Q02223 1-54, looked up)
chain: MLQMAGQCSQNEYFDSLLHACIPCQLRCSSNTPPLTCQRYCNASVTNSVKGTNA

Molecular target: biotinylated human BCMA (human) (UniProt Q02223)
Assay: BLI (Octet RED384), biotinylated human BCMA on SAX sensors, scFv 1200 nM analyte, 1:1 model
Conditions: not given

Going from B1 to B2, the Kd rises from 1.5 nM to 3.38 nM (2.3-fold). The first binds more tightly here.

First: B3
Second: B4
The Kd of the first is 3.8-fold lower: 15.5 nM for the first, 59.6 nM for the second. The first binds more tightly here.

Binder B5 has a Kd of 8.42 nM.

First: B1
Second: B2
The Response of the first is higher: 0.174 nm for the first, 0.171 nm for the second.

Going from B3 to B4, the Response falls from 0.183 nm to 0.115 nm.

With B5 the Response was 0.172 nm.

Compared with B1, B2 is 1.7-fold higher in koff: 0.00057 s⁻¹ for the first, 0.00096 s⁻¹ for the second.

Compared with B3, B4 is 1.9-fold higher in koff: 0.00128 s⁻¹ for the first, 0.00248 s⁻¹ for the second.

Binder B5 has a koff of 0.000939 s⁻¹.

B1 and B2 are within 1.5-fold of each other in kon: 380000 M⁻¹ s⁻¹ for the first, 284000 M⁻¹ s⁻¹ for the second.

First: B3
Second: B4
The kon of the first is 2-fold higher: 82600 M⁻¹ s⁻¹ for the first, 41700 M⁻¹ s⁻¹ for the second.

B5 showed a kon of 112000 M⁻¹ s⁻¹.

Molecular target: T1, human APRIL/TNFSF13 (human), O75888
Assay: BLI (Octet RED384), APRIL/TNFSF13 on AR2G sensors, 71 nM human BCMA analyte, no antibody
Conditions: remark: other sources report otherwise

Work on B6 yielded a Response of 0.659 nm.
